This note sets out measurements from patent publication US20060257938A1, “Method of screening for drugs that block ligand binding to a lipid binding protein” (priority 2005, published 2006).

Type in all cases: binding
A short description of experiment [1]: Probe fluorescence ratio response to arachidonic acid relative to ADIFAB2. Particulars: arachidonic acid; response relative to ADIFAB2. Put shortly: (§1)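 Fluorescently labeled rat intestinal FABP variants were read at two emission wavelengths, near the unbound maximum (about 420 to 480 nm) and the FFA-bound maximum (about 495 to 580 nm). R = Fλ1/Fλ2 after subtracting probe-free intensity; ΔR = R+agent − R0, normalized to ADIFAB2 (rI-FABP-L72A).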

A short description of experiment [2]: Probe fluorescence ratio response to palmitic acid relative to ADIFAB2. Conditions: response relative to ADIFAB2. Put shortly: as §1
Experiment [3] can be described thus: Probe fluorescence ratio response to linoleic acid relative to ADIFAB2. Conditions: response relative to ADIFAB2. In short, it runs like this: as §1
Experiment [4] is described as follows: Probe fluorescence ratio response to linolenic acid relative to ADIFAB2. Particulars: response relative to ADIFAB2. In short, it runs like this:
as §1

Experiment [5] can be described thus: Probe fluorescence ratio response to oleic acid relative to ADIFAB2. Particulars: response relative to ADIFAB2. Put shortly: as §1

B1: 23H1, 72A (protein, listed as Rattus norvegicus)
chain: AFDGTWKVDRNENYEKFMEKMGHNVVKRKLGAHDNLKLTITQEGNKFTVKESSNFRNIDVVFELGVDFAYSAADGTELTGTWTMEGNKLVGKFKRVDNGKELIAVREISGNELIQTYTYEGVEAKRIFKKE
modifications: PEPTIDE (1)...(131) wild-type rat intestinal fatty acid binding protein
As to B1, the “DR/DR AA” value in experiment [1] is 0.16. Besides, the “DR/DR PA” value in experiment [2] was found to be 0.13. For the same molecule, in experiment [3], the “DR/DR LA” value is 0.13. Also, the “DR/DR LNA” value in experiment [4] came out at 0.17. In addition, the “DR/DR OA” value in experiment [5] is given as 0.11.

B2: 23R3, 72A (protein, listed as Rattus norvegicus)
chain: AFDGTWKVDRNENYEKFMEKMGRNVVKRKLGAHDNLKLTITQEGNKFTVKESSNFRNIDVVFELGVDFAYSAADGTELTGTWTMEGNKLVGKFKRVDNGKELIAVREISGNELIQTYTYEGVEAKRIFKKE
modifications: PEPTIDE (1)...(131) wild-type rat intestinal fatty acid binding protein
Consider B2, for which the “DR/DR AA” value in experiment [1] is on record as 0.14. Further, in experiment [2], the “DR/DR PA” value is reported as 0.10. For the same molecule, the “DR/DR LA” value in experiment [3] is 0.14. In addition, the “DR/DR LNA” value in experiment [4] is listed as 0.14. The “DR/DR OA” value in experiment [5] worked out at 0.12.

B3: 31D2, 72A (protein, listed as Rattus norvegicus)
chain: AFDGTWKVDRNENYEKFMEKMGINVVKRKLDAHDNLKLTITQEGNKFTVKESSNFRNIDVVFELGVDFAYSAADGTELTGTWTMEGNKLVGKFKRVDNGKELIAVREISGNELIQTYTYEGVEAKRIFKKE
modifications: PEPTIDE (1)...(131) wild-type rat intestinal fatty acid binding protein
As to B3, the “DR/DR AA” value in experiment [1] came to 0.20. In addition, the “DR/DR PA” value in experiment [2] was 0.06. In addition, in experiment [3], the “DR/DR LA” value turned out to be 0.16. In addition, the “DR/DR LNA” value in experiment [4] stood at 0.14. The “DR/DR OA” value in experiment [5] amounted to 0.13.

B4: 23P1, 72A (protein, listed as Rattus norvegicus)
chain: AFDGTWKVDRNENYEKFMEKMGPNVVKRKLGAHDNLKLTITQEGNKFTVKESSNFRNIDVVFELGVDFAYSAADGTELTGTWTMEGNKLVGKFKRVDNGKELIAVREISGNELIQTYTYEGVEAKRIFKKE
modifications: PEPTIDE (1)...(131) wild-type rat intestinal fatty acid binding protein
For the molecule B4, the “DR/DR AA” value in experiment [1] came to 1.25. For the same molecule, in experiment [2], the “DR/DR PA” value turned out to be 0.64. Further, the “DR/DR LA” value in experiment [3] is 1.36. The “DR/DR LNA” value in experiment [4] is 1.38. In addition, in experiment [5], the “DR/DR OA” value worked out at 1.24.

B5: 23Y1, 72A (protein, listed as Rattus norvegicus)
chain: AFDGTWKVDRNENYEKFMEKMGYNVVKRKLGAHDNLKLTITQEGNKFTVKESSNFRNIDVVFELGVDFAYSAADGTELTGTWTMEGNKLVGKFKRVDNGKELIAVREISGNELIQTYTYEGVEAKRIFKKE
modifications: PEPTIDE (1)...(131) wild-type rat intestinal fatty acid binding protein
For the molecule B5, the “DR/DR AA” value in experiment [1] is listed as 0.49. For the same molecule, in experiment [2], the “DR/DR PA” value came to 0.28. The “DR/DR LA” value in experiment [3] was 0.44. Further, the “DR/DR LNA” value in experiment [4] worked out at 0.44. Also, the “DR/DR OA” value in experiment [5] is listed as 0.41.

B6: 23V2, 72A (protein, listed as Rattus norvegicus)
chain: AFDGTWKVDRNENYEKFMEKMGVNVVKRKLGAHDNLKLTITQEGNKFTVKESSNFRNIDVVFELGVDFAYSAADGTELTGTWTMEGNKLVGKFKRVDNGKELIAVREISGNELIQTYTYEGVEAKRIFKKE
modifications: PEPTIDE (1)...(131) wild-type rat intestinal fatty acid binding protein
As for B6, the “DR/DR AA” value in experiment [1] amounted to 1.46. Also, the “DR/DR PA” value in experiment [2] is recorded as 1.48. The “DR/DR LA” value in experiment [3] is on record as 1.73. The “DR/DR LNA” value in experiment [4] was 1.35. The “DR/DR OA” value in experiment [5] was 1.56.

B7: 31C1, 72A (protein, listed as Rattus norvegicus)
chain: AFDGTWKVDRNENYEKFMEKMGINVVKRKLCAHDNLKLTITQEGNKFTVKESSNFRNIDVVFELGVDFAYSAADGTELTGTWTMEGNKLVGKFKRVDNGKELIAVREISGNELIQTYTYEGVEAKRIFKKE
modifications: PEPTIDE (1)...(131) wild-type rat intestinal fatty acid binding protein
Consider B7, for which, in experiment [1], the “DR/DR AA” value is on record as 0.32. Moreover, the “DR/DR PA” value in experiment [2] was determined as 0.23. Besides, in experiment [3], the “DR/DR LA” value amounted to 0.36. Besides, in experiment [4], the “DR/DR LNA” value is listed as 0.36. Moreover, the “DR/DR OA” value in experiment [5] is recorded as 0.30.

B8: 23K1, 72A (protein, listed as Rattus norvegicus)
chain: AFDGTWKVDRNENYEKFMEKMGKNVVKRKLGAHDNLKLTITQEGNKFTVKESSNFRNIDVVFELGVDFAYSAADGTELTGTWTMEGNKLVGKFKRVDNGKELIAVREISGNELIQTYTYEGVEAKRIFKKE
modifications: PEPTIDE (1)...(131) wild-type rat intestinal fatty acid binding protein
Take B8: the “DR/DR AA” value in experiment [1] turned out to be 0.13. Also, in experiment [2], the “DR/DR PA” value was 0.08. For the same molecule, the “DR/DR LA” value in experiment [3] is on record as 0.14. In addition, the “DR/DR LNA” value in experiment [4] worked out at 0.13. Moreover, in experiment [5], the “DR/DR OA” value was found to be 0.13.

B9: 23L3, 72A (protein, listed as Rattus norvegicus)
chain: AFDGTWKVDRNENYEKFMEKMGLNVVKRKLGAHDNLKLTITQEGNKFTVKESSNFRNIDVVFELGVDFAYSAADGTELTGTWTMEGNKLVGKFKRVDNGKELIAVREISGNELIQTYTYEGVEAKRIFKKE
modifications: PEPTIDE (1)...(131) wild-type rat intestinal fatty acid binding protein
As to B9, in experiment [1], the “DR/DR AA” value is listed as 1.17. Further, the “DR/DR PA” value in experiment [2] was 0.93. For the same molecule, in experiment [3], the “DR/DR LA” value is reported as 1.04. Also, the “DR/DR LNA” value in experiment [4] is on record as 1.03. Moreover, in experiment [5], the “DR/DR OA” value stood at 1.06.

B10: 23T1, 72A (protein, listed as Rattus norvegicus)
chain: AFDGTWKVDRNENYEKFMEKMGTNVVKRKLGAHDNLKLTITQEGNKFTVKESSNFRNIDVVFELGVDFAYSAADGTELTGTWTMEGNKLVGKFKRVDNGKELIAVREISGNELIQTYTYEGVEAKRIFKKE
modifications: PEPTIDE (1)...(131) wild-type rat intestinal fatty acid binding protein
As for B10, the “DR/DR AA” value in experiment [1] worked out at 0.22. In addition, the “DR/DR PA” value in experiment [2] turned out to be 0.24. The “DR/DR LA” value in experiment [3] is given as 0.33. Besides, the “DR/DR LNA” value in experiment [4] is on record as 0.21. The “DR/DR OA” value in experiment [5] came out at 0.19.

B11: 23N1, 72A (protein, listed as Rattus norvegicus)
chain: AFDGTWKVDRNENYEKFMEKMGNNVVKRKLGAHDNLKLTITQEGNKFTVKESSNFRNIDVVFELGVDFAYSAADGTELTGTWTMEGNKLVGKFKRVDNGKELIAVREISGNELIQTYTYEGVEAKRIFKKE
modifications: PEPTIDE (1)...(131) wild-type rat intestinal fatty acid binding protein
Take B11: the “DR/DR AA” value in experiment [1] stood at 0.12. Moreover, the “DR/DR PA” value in experiment [2] is recorded as 0.10. Also, in experiment [3], the “DR/DR LA” value was determined as 0.13. Also, the “DR/DR LNA” value in experiment [4] came to 0.13. In experiment [5], the “DR/DR OA” value turned out to be 0.12.

B12: 31E3, 72A (protein, listed as Rattus norvegicus)
chain: AFDGTWKVDRNENYEKFMEKMGINVVKRKLEAHDNLKLTITQEGNKFTVKESSNFRNIDVVFELGVDFAYSAADGTELTGTWTMEGNKLVGKFKRVDNGKELIAVREISGNELIQTYTYEGVEAKRIFKKE
modifications: PEPTIDE (1)...(131) wild-type rat intestinal fatty acid binding protein
B12: the “DR/DR AA” value in experiment [1] is reported as 0.55. In experiment [2], the “DR/DR PA” value amounted to 0.38. Besides, the “DR/DR LA” value in experiment [3] worked out at 0.74. The “DR/DR LNA” value in experiment [4] was found to be 0.82. Further, the “DR/DR OA” value in experiment [5] was found to be 0.50.

B13: 23W1, 72A (protein, listed as Rattus norvegicus)
chain: AFDGTWKVDRNENYEKFMEKMGWNVVKRKLGAHDNLKLTITQEGNKFTVKESSNFRNIDVVFELGVDFAYSAADGTELTGTWTMEGNKLVGKFKRVDNGKELIAVREISGNELIQTYTYEGVEAKRIFKKE
modifications: PEPTIDE (1)...(131) wild-type rat intestinal fatty acid binding protein
In the case of B13, in experiment [1], the “DR/DR AA” value is on record as 0.62. In experiment [2], the “DR/DR PA” value was 0.49. Moreover, the “DR/DR LA” value in experiment [3] is on record as 0.79. For the same molecule, the “DR/DR LNA” value in experiment [4] came to 0.96. Further, in experiment [5], the “DR/DR OA” value is listed as 0.45.

B14: 31F2, 72A (protein, listed as Rattus norvegicus)
chain: AFDGTWKVDRNENYEKFMEKMGINVVKRKLFAHDNLKLTITQEGNKFTVKESSNFRNIDVVFELGVDFAYSAADGTELTGTWTMEGNKLVGKFKRVDNGKELIAVREISGNELIQTYTYEGVEAKRIFKKE
modifications: PEPTIDE (1)...(131) wild-type rat intestinal fatty acid binding protein
On to B14, for which the “DR/DR AA” value in experiment [1] amounted to 1.41. Besides, in experiment [2], the “DR/DR PA” value is reported as 1.21. For the same molecule, the “DR/DR LA” value in experiment [3] was 1.76. Moreover, the “DR/DR LNA” value in experiment [4] is 1.62. In addition, the “DR/DR OA” value in experiment [5] came to 1.43.

B15: 31I1, 72A (protein, listed as Rattus norvegicus)
chain: AFDGTWKVDRNENYEKFMEKMGINVVKRKLIAHDNLKLTITQEGNKFTVKESSNFRNIDVVFELGVDFAYSAADGTELTGTWTMEGNKLVGKFKRVDNGKELIAVREISGNELIQTYTYEGVEAKRIFKKE
modifications: PEPTIDE (1)...(131) wild-type rat intestinal fatty acid binding protein
In the case of B15, the “DR/DR AA” value in experiment [1] worked out at 0.30. In addition, the “DR/DR PA” value in experiment [2] is 0.09. In experiment [3], the “DR/DR LA” value came to 0.17. Moreover, in experiment [4], the “DR/DR LNA” value is 0.41. In addition, in experiment [5], the “DR/DR OA” value is given as −0.21.
